According to patent EP4722247A1 (Oricell Therapeutics Co., Ltd., dated 2026):
Where two headings read alike, the source gives them in different places.

What was measured:
[1] = molecular target: T1, Human CD39-His protein (CD9-H52H4, ACRO Biosystems) (human, UniProt P49961 38-478); assay: BLI (Fortebio), antibody on AHC probe, human CD39-His in solution
T1 construct: Purchased protein; also called human CD39-His antigen; human CD39 protein; not shown: His tag
T1 sequence (looked up): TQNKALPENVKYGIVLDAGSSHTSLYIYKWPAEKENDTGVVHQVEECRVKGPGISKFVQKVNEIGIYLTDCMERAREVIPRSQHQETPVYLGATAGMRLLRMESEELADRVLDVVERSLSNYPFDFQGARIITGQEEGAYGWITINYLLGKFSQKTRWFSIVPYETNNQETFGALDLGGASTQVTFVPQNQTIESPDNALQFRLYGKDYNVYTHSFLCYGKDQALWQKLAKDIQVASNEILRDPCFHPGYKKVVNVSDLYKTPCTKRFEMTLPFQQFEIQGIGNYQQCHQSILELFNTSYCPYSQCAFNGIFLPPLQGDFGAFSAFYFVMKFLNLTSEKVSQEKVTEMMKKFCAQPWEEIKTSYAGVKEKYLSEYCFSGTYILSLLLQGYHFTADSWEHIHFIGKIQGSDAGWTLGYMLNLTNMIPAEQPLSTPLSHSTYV

[2] = molecular target: T1, Human CD39-His protein (CD9-H52H4, ACRO …); assay: as above; remark: listed apart in the source

- Kd [1]: 0.802 nM
- koff [1]: 0.000168 s⁻¹
- kon [1]: 210000 M⁻¹ s⁻¹
- Kd [2]: 1.28 nM
- koff [2]: 0.000408 s⁻¹
- kon [2]: 320000 M⁻¹ s⁻¹
B1: control antibody H5L5 (Patent CN112714768A) (antibody, V domains shown)
VH: QVQLVQSGAEVKKPGASVKVSCKASGYNLKDTFLHWVRQAPGQGLEWMGRIDPANGNIKYDPKFQGRVTITADTSANTAYMELISLRSEDTAVYYCANSPYYYGSGYRIFDVWGQGTTVTVSS
VL: QIVLTQSPATLSLSPGERATLSCSAFSSVNYMHWYQQKPGQAPRLLIYTTSNLASGIPTRFSGSGSGTSYTLTISSLEPEDFAVYYCQQRSTYPFTFGQGTKLEIKR
notes: Anti-CD39 control antibody; also called H5L5 control antibody
